Columns and labels:
[1] = target: insulin receptor (IR); experiment: competition ELISA, plate-bound Insulin-R, 20 nM insulin-biotin, competitor 250 nM, replicate 1
[2] = target: insulin receptor (IR); experiment: competition ELISA, plate-bound Insulin-R, 20 nM insulin-biotin, competitor 3.90625 nM, average
[3] = target: insulin receptor (IR); experiment: competition ELISA, plate-bound Insulin-R, 20 nM insulin-biotin, competitor […], average
[4] = target: insulin receptor (IR); experiment: competition ELISA, plate-bound Insulin-R, 20 nM insulin-biotin, competitor 500 nM, average
[5] = target: insulin receptor (IR); experiment: competition ELISA, plate-bound Insulin-R, 20 nM insulin-biotin, competitor 2000 nM, replicate 2
[6] = target: insulin receptor (IR); experiment: competition ELISA, plate-bound Insulin-R, 20 nM insulin-biotin, competitor 62.5 nM, replicate 2
[7] = target: insulin receptor (IR); experiment: competition ELISA, plate-bound Insulin-R, 20 nM insulin-biotin, competitor 62.5 nM, replicate 1
[8] = target: insulin receptor (IR); experiment: competition ELISA, plate-bound Insulin-R, 20 nM insulin-biotin, competitor 15.625 nM, replicate 1
[9] = target: insulin receptor (IR); experiment: competition ELISA, plate-bound Insulin-R, 20 nM insulin-biotin, competitor […], replicate 2
[10] = target: insulin receptor (IR); experiment: competition ELISA, plate-bound Insulin-R, 20 nM insulin-biotin, competitor 1000 nM, average
[11] = target: insulin receptor (IR); experiment: competition ELISA, plate-bound Insulin-R, 20 nM insulin-biotin, competitor 2000 nM, replicate 1
[12] = target: insulin receptor (IR); experiment: competition ELISA, plate-bound Insulin-R, 20 nM insulin-biotin, competitor 500 nM, replicate 2
[13] = target: insulin receptor (IR); experiment: competition ELISA, plate-bound Insulin-R, 20 nM insulin-biotin, competitor 2000 nM, average
[14] = target: insulin receptor (IR); experiment: competition ELISA, plate-bound Insulin-R, 20 nM insulin-biotin, competitor 3.90625 nM, replicate 2
[15] = target: insulin receptor (IR); experiment: competition ELISA, plate-bound Insulin-R, 20 nM insulin-biotin, competitor 1000 nM, replicate 2
[16] = target: insulin receptor (IR); experiment: competition ELISA, plate-bound Insulin-R, 20 nM insulin-biotin, competitor 7.8125 nM, replicate 1
[17] = target: insulin receptor (IR); experiment: competition ELISA, plate-bound Insulin-R, 20 nM insulin-biotin, competitor 7.8125 nM, replicate 2
[18] = target: insulin receptor (IR); experiment: competition ELISA, plate-bound Insulin-R, 20 nM insulin-biotin, competitor 1.95313 nM, average
[19] = target: insulin receptor (IR); experiment: competition ELISA, plate-bound Insulin-R, 20 nM insulin-biotin, competitor 15.625 nM, average
[20] = target: insulin receptor (IR); experiment: competition ELISA, plate-bound Insulin-R, 20 nM insulin-biotin, competitor 31.25 nM, replicate 2
[21] = target: insulin receptor (IR); experiment: competition ELISA, plate-bound Insulin-R, 20 nM insulin-biotin, competitor 1000 nM, replicate 1
[22] = target: insulin receptor (IR); experiment: competition ELISA, plate-bound Insulin-R, 20 nM insulin-biotin, competitor 500 nM, replicate 1
[23] = target: insulin receptor (IR); experiment: competition ELISA, plate-bound Insulin-R, 20 nM insulin-biotin, competitor 15.625 nM, replicate 2
[24] = target: insulin receptor (IR); experiment: competition ELISA, plate-bound Insulin-R, 20 nM insulin-biotin, competitor 31.25 nM, replicate 1
[25] = target: insulin receptor (IR); experiment: competition ELISA, plate-bound Insulin-R, 20 nM insulin-biotin, competitor 62.5 nM, average
[26] = target: insulin receptor (IR); experiment: competition ELISA, plate-bound Insulin-R, 20 nM insulin-biotin, competitor 250 nM, average
[27] = target: insulin receptor (IR); experiment: competition ELISA, plate-bound Insulin-R, 20 nM insulin-biotin, competitor 250 nM, replicate 2
[28] = target: insulin receptor (IR); experiment: competition ELISA, plate-bound Insulin-R, 20 nM insulin-biotin, competitor 3.90625 nM, replicate 1
[29] = target: insulin receptor (IR); experiment: competition ELISA, plate-bound Insulin-R, 20 nM insulin-biotin, competitor […], replicate 1
[30] = target: insulin receptor (IR); experiment: competition ELISA, plate-bound Insulin-R, 20 nM insulin-biotin, competitor 7.8125 nM, average
[31] = target: insulin receptor (IR); experiment: competition ELISA, plate-bound Insulin-R, 20 nM insulin-biotin, competitor 1.95313 nM, replicate 2
[32] = target: insulin receptor (IR); experiment: competition ELISA, plate-bound Insulin-R, 20 nM insulin-biotin, competitor 1.95313 nM, replicate 1
[33] = target: insulin receptor (IR); experiment: competition ELISA, plate-bound Insulin-R, 20 nM insulin-biotin, competitor 31.25 nM, average
[34] = target: insulin receptor (IR); experiment: plate-bound Insulin-R, 20 nM insulin-biotin, 0 nM competitor (Insulin series), replicate 2
[35] = target: insulin receptor (IR); experiment: plate-bound Insulin-R, 20 nM insulin-biotin, 0 nM competitor (ZC701B20 series), average
[36] = target: insulin receptor (IR); experiment: plate-bound Insulin-R, 20 nM insulin-biotin, 0 nM competitor (Insulin series), average
[37] = target: insulin receptor (IR); experiment: plate-bound Insulin-R, 20 nM insulin-biotin, 0 nM competitor (IFG-II series), replicate 2
[38] = target: insulin receptor (IR); experiment: plate-bound Insulin-R, 20 nM insulin-biotin, 0 nM competitor (IFG-II series), replicate 1
[39] = target: insulin receptor (IR); experiment: plate-bound Insulin-R, 20 nM insulin-biotin, 0 nM competitor (ZC1487B26 series), replicate 2
[40] = target: insulin receptor (IR); experiment: plate-bound Insulin-R, 20 nM insulin-biotin, 0 nM competitor (ZC701B20 series), replicate 1
[41] = target: insulin receptor (IR); experiment: plate-bound Insulin-R, 20 nM insulin-biotin, 0 nM competitor (IFG-II series), average
[42] = target: insulin receptor (IR); experiment: plate-bound Insulin-R, 20 nM insulin-biotin, 0 nM competitor (ZC1487B26 series), replicate 1
[43] = target: insulin receptor (IR); experiment: plate-bound Insulin-R, 20 nM insulin-biotin, 0 nM competitor (ZC1487B26 series), average
[44] = target: insulin receptor (IR); experiment: plate-bound Insulin-R, 20 nM insulin-biotin, 0 nM competitor (Insulin series), replicate 1
[45] = target: insulin receptor (IR); experiment: plate-bound Insulin-R, 20 nM insulin-biotin, 0 nM competitor (ZC701B20 series), replicate 2
[46] = target: ConA (ConA-sepharose beads); experiment: pull-down on ConA-sepharose beads, GUS activity in flow through

Sequence of periodate/borohydride modified ß-glucuronidase (enzyme) (P08236 23-651): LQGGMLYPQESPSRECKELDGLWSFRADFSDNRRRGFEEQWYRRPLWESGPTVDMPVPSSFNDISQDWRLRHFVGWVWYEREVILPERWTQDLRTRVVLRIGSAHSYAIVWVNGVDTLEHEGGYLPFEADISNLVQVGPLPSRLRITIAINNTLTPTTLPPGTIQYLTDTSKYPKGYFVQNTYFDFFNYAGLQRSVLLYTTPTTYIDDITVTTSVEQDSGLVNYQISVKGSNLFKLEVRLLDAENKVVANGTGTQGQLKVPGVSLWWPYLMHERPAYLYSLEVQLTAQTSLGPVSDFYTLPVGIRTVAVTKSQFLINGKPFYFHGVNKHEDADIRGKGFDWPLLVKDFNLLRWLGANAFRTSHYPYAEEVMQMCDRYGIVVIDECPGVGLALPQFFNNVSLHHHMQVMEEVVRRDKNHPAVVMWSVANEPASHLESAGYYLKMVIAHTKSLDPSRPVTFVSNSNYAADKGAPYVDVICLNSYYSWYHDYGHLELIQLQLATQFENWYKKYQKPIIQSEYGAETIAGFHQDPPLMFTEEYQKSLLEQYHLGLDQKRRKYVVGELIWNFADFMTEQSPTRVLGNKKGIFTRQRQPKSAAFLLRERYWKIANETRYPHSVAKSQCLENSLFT

## IGF-II (wild-type, non-biotinylated control ligand) (from UniProt P01344 25-91)
[1]
  Chemiluminescence Intensity: 644
[2]
  Chemiluminescence Intensity: 1420
[3]
  Chemiluminescence Intensity: 874
[4]
  Chemiluminescence Intensity: 368
[5]
  Chemiluminescence Intensity: 140
[6]
  Chemiluminescence Intensity: 1220
[7]
  Chemiluminescence Intensity: 991
[8]
  Chemiluminescence Intensity: 1490
[9]
  Chemiluminescence Intensity: 919
[10]
  Chemiluminescence Intensity: 222
[11]
  Chemiluminescence Intensity: 70
[12]
  Chemiluminescence Intensity: 379
[13]
  Chemiluminescence Intensity: 105
[14]
  Chemiluminescence Intensity: 1370
[15]
  Chemiluminescence Intensity: 176
[16]
  Chemiluminescence Intensity: 1480
[17]
  Chemiluminescence Intensity: 1480
[18]
  Chemiluminescence Intensity: 1330
[19]
  Chemiluminescence Intensity: 1430
[20]
  Chemiluminescence Intensity: 1450
[21]
  Chemiluminescence Intensity: 268
[22]
  Chemiluminescence Intensity: 356
[23]
  Chemiluminescence Intensity: 1380
[24]
  Chemiluminescence Intensity: 1190
[25]
  Chemiluminescence Intensity: 1110
[26]
  Chemiluminescence Intensity: 605
[27]
  Chemiluminescence Intensity: 566
[28]
  Chemiluminescence Intensity: 1480
[29]
  Chemiluminescence Intensity: 828
[30]
  Chemiluminescence Intensity: 1480
[31]
  Chemiluminescence Intensity: 1250
[32]
  Chemiluminescence Intensity: 1410
[33]
  Chemiluminescence Intensity: 1320

## Insulin (non-biotinylated control) (from UniProt P01308 25-54; P01308 90-110) (ligand)
[1]
  Chemiluminescence Intensity: 102
[2]
  Chemiluminescence Intensity: 1260
[3]
  Chemiluminescence Intensity: 236
[4]
  Chemiluminescence Intensity: 61.5
[5]
  Chemiluminescence Intensity: 13
[6]
  Chemiluminescence Intensity: 517
[7]
  Chemiluminescence Intensity: 479
[8]
  Chemiluminescence Intensity: 780
[9]
  Chemiluminescence Intensity: 229
[10]
  Chemiluminescence Intensity: 34
[11]
  Chemiluminescence Intensity: 38
[12]
  Chemiluminescence Intensity: 57
[13]
  Chemiluminescence Intensity: 25.5
[14]
  Chemiluminescence Intensity: 1340
[15]
  Chemiluminescence Intensity: 25
[16]
  Chemiluminescence Intensity: 503
[17]
  Chemiluminescence Intensity: 1000
[18]
  Chemiluminescence Intensity: 1250
[19]
  Chemiluminescence Intensity: 832
[20]
  Chemiluminescence Intensity: 517
[21]
  Chemiluminescence Intensity: 43
[22]
  Chemiluminescence Intensity: 66
[23]
  Chemiluminescence Intensity: 885
[24]
  Chemiluminescence Intensity: 750
[25]
  Chemiluminescence Intensity: 498
[26]
  Chemiluminescence Intensity: 122
[27]
  Chemiluminescence Intensity: 141
[28]
  Chemiluminescence Intensity: 1180
[29]
  Chemiluminescence Intensity: 243
[30]
  Chemiluminescence Intensity: 753
[31]
  Chemiluminescence Intensity: 1460
[32]
  Chemiluminescence Intensity: 1050
[33]
  Chemiluminescence Intensity: 634

## Insulin-biotin (biotinylated insulin) (from UniProt P01308 25-54; P01308 90-110) (ligand)
[34]
  Chemiluminescence Intensity: 1690
[35]
  Chemiluminescence Intensity: 1840
[36]
  Chemiluminescence Intensity: 1940
[37]
  Chemiluminescence Intensity: 1960
[38]
  Chemiluminescence Intensity: 1870
[39]
  Chemiluminescence Intensity: 2070
[40]
  Chemiluminescence Intensity: 1790
[41]
  Chemiluminescence Intensity: 1920
[42]
  Chemiluminescence Intensity: 1950
[43]
  Chemiluminescence Intensity: 2010
[44]
  Chemiluminescence Intensity: 2180
[45]
  Chemiluminescence Intensity: 1890

## periodate/borohydride modified ß-glucuronidase (enzyme)
[46]
  ConA binding activity lost: 60%

Source: patent publication US20230241187A1
